Laboratory results reported in patent US20100129369A1 (Eli Lilly, published 2010).

Key:
[1] = molecular target: T1, human c-Met ECD-Fc-Flis (human); experiment: HGF-blocking ELISA: HGF signal on coated c-Met ECD-Fc-Flis; Ab 1953.13 ng/mL
T1 construct: c-Met ECD fused to Fc with flag- and His-tag at the C-terminus; also called human c-Met extracellular domain (ECD)-Fc-Flis fusion; human c-Met-Flis-Fc ECD
Description: (§1) Wells of 96-well EIA/RIA high binding plates (Costar, #2592) are coated with 100 μL of human c-Met ECD-Fc-Flis (SEQ ID NO:72) (2 μg/mL) in Dulbecco's phosphate buffered saline (DPBS) overnight at room temperature; washed four times with wash buffer (Tris-buffered saline, pH 8.0, with 0.05% (v/v) polysorbate 20 (TWEEN®-20) (TBS-T) (BioFX Labs, # WSHW-1000-01) in a plate washer; blocked by adding 300 μL of blocking buffer (TBS-T plus 1% (w/v) bovine serum albumin (BSA) (Jackson Immuno, #001-000-162); and incubating for 60 min. at 37° C. Blocking buffer is then removed from the wells and 50 μL of antibodies in blocking buffer at final concentrations as indicated in Table 7 are added into each well, respectively. […] The plates with c-Met antibodies are incubated for 90 min. at 37° C. […] The wells are then washed four times with TBS-T in a plate washer. […] The plates are incubated for 90 min. at room temperature. The wells are again washed four times with TBS-T in a plate washer. 100 μL of a 1:200 dilution of streptavidin-horseradish peroxidase (HRP) (R&D Systems, DY998) in blocking buffer are added to each well. The plates are incubated for 30 min. at room temperature. The wells are washed four times with TBS-T in a plate washer. 100 μL/well of substrate solution (BioFx, #TMBW-1000-01) are then added, and the plates are incubated for 10 min. at room temperature. To stop the reaction, 100 μL/well of stop solution (BioFx, # LSTP-1000-01) are added. The samples are read at a wavelength of 450-570 nm on a microplate reader (Spectra, MAX 190) and no background is subtracted.

[2] = molecular target: T1, human c-Met ECD-Fc-Flis; experiment: HGF-blocking ELISA: HGF signal on coated c-Met ECD-Fc-Flis; Ab 0.48 ng/mL
Description: as §1

[3] = molecular target: T1, human c-Met ECD-Fc-Flis; experiment: HGF-blocking ELISA: HGF signal on coated c-Met ECD-Fc-Flis; Ab 0.00 ng/mL (HGF only)
Description: as §1

[4] = molecular target: T1, human c-Met ECD-Fc-Flis; experiment: HGF-blocking ELISA: HGF signal on coated c-Met ECD-Fc-Flis; Ab 30.52 ng/mL
Description: as §1

[5] = molecular target: T1, human c-Met ECD-Fc-Flis; experiment: HGF-blocking ELISA: HGF signal on coated c-Met ECD-Fc-Flis; Ab 31250.00 ng/mL
Description: as §1

[6] = molecular target: T2, human c-Met (human, UniProt P08581 25-1390); experiment: cell-based or functional assay
T2 sequence (P08581 25-1390): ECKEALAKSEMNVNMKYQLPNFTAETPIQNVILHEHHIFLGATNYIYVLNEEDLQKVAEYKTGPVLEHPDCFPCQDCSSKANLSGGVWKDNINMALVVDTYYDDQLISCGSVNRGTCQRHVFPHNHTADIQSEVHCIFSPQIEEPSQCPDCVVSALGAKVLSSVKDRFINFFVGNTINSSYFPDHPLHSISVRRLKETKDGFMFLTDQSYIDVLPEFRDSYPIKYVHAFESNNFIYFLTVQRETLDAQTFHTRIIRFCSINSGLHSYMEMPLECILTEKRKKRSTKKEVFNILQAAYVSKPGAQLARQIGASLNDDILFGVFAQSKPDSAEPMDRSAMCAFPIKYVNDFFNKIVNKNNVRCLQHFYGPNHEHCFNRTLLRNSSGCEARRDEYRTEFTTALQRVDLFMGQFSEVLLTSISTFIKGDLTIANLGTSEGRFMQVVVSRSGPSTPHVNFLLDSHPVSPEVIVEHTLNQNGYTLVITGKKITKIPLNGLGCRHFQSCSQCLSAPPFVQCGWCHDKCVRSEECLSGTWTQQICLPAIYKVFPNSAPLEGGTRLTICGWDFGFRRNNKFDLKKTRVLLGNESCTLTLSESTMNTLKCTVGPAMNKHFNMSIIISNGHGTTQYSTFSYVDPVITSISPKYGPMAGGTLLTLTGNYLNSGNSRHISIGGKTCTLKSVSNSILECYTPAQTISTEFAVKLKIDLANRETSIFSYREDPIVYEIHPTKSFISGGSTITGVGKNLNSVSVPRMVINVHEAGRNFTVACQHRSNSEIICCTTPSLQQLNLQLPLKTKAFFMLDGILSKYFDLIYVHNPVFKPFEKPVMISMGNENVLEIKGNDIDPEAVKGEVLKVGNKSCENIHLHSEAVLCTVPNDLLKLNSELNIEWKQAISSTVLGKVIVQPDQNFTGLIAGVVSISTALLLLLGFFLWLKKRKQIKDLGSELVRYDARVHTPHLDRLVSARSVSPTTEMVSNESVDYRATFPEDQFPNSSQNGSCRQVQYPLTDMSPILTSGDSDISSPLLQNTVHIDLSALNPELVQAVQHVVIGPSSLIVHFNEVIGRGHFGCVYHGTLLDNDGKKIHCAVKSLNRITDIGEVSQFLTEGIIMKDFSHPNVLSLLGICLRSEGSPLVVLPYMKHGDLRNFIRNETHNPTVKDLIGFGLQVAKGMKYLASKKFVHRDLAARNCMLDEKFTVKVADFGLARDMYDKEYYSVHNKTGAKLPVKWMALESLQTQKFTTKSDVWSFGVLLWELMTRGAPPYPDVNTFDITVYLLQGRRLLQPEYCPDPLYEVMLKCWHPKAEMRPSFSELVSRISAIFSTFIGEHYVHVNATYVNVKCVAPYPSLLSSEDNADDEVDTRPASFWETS

[7] = molecular target: T1, human c-Met ECD-Fc-Flis; experiment: HGF-blocking ELISA: HGF signal on coated c-Met ECD-Fc-Flis; Ab 122.07 ng/mL
Description: as §1

[8] = molecular target: T1, human c-Met ECD-Fc-Flis; experiment: HGF-blocking ELISA: HGF signal on coated c-Met ECD-Fc-Flis; Ab 7812.50 ng/mL
Description: as §1

[9] = molecular target: T2, human c-Met; experiment: cell-based or functional assay; remark: listed apart in the source
[10] = molecular target: T1, human c-Met ECD-Fc-Flis; experiment: HGF-blocking ELISA: HGF signal on coated c-Met ECD-Fc-Flis; Ab 125000.00 ng/mL
Description: as §1

[11] = molecular target: T1, human c-Met ECD-Fc-Flis; experiment: HGF-blocking ELISA: HGF signal on coated c-Met ECD-Fc-Flis; Ab 7.63 ng/mL
Description: as §1

[12] = molecular target: T1, human c-Met ECD-Fc-Flis; experiment: HGF-blocking ELISA: HGF signal on coated c-Met ECD-Fc-Flis; Ab 1.91 ng/mL
Description: as §1

[13] = molecular target: T1, human c-Met ECD-Fc-Flis; experiment: HGF-blocking ELISA: HGF signal on coated c-Met ECD-Fc-Flis; Ab 488.28 ng/mL
Description: as §1

[14] = molecular target: T2, human c-Met; experiment: cell-based or functional assay; remark: listed apart in the source
[15] = molecular target: T3, human c-Met (human, UniProt P08581 25-1390); experiment: cell-based or functional assay; remark: listed apart in the source
T3 sequence (P08581 25-1390): as above

[16] = molecular target: T3, human c-Met; experiment: cell-based or functional assay; remark: listed apart in the source
[17] = molecular target: T3, human c-Met; experiment: cell-based or functional assay; remark: listed apart in the source

T1 sequence (chain, as listed by the source): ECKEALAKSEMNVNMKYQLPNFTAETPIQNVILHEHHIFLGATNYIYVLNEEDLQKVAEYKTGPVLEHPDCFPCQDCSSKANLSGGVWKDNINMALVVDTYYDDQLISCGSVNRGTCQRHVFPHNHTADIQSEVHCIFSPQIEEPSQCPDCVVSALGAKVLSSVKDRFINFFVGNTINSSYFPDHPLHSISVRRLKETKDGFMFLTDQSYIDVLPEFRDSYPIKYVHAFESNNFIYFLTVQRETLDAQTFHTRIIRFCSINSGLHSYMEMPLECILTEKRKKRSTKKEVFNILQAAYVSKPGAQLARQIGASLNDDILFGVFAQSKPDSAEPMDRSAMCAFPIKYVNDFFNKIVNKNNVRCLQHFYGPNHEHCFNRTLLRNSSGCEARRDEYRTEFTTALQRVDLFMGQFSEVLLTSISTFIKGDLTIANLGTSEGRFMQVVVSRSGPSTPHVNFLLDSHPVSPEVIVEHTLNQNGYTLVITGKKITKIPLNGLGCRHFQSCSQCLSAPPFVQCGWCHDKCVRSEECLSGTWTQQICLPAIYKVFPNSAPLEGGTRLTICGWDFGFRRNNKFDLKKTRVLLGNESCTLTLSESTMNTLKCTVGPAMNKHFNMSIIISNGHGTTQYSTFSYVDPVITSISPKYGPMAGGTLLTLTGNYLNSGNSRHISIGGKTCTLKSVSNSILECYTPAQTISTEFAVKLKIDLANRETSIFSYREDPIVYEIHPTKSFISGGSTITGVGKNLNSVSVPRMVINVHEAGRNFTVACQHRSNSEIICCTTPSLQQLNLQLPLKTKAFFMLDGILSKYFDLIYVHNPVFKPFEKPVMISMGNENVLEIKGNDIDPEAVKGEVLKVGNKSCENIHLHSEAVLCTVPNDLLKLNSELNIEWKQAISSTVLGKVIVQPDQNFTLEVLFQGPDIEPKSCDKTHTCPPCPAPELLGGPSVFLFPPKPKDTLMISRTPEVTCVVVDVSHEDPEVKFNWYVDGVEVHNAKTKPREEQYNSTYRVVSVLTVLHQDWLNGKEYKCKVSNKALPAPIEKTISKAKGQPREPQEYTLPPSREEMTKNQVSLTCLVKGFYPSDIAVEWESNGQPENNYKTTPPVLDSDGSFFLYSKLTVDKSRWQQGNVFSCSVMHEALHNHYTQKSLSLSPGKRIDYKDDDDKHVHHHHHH

Row | Binder | AVG A450 nm [1] [A450 nm] | AVG A450 nm [2] [A450 nm] | AVG A450 nm [3] [A450 nm] | AVG A450 nm [4] [A450 nm] | AVG A450 nm [5] [A450 nm] | % inhibition of HGF stimulated phospho-Met (ELISA, HCT116 cells), Ab 0.0032 µg/mL [6] [%] | % inhibition of HGF stimulated phospho-Met (ELISA, HCT116 cells), Ab 0.016 µg/mL [6] [%] | % inhibition of HGF stimulated phospho-Met (ELISA, HCT116 cells), Ab 0.08 µg/mL [6] [%] | % inhibition of HGF stimulated phospho-Met (ELISA, HCT116 cells), Ab 0.4 µg/mL [6] [%] | % inhibition of HGF stimulated phospho-Met (ELISA, HCT116 cells), Ab 2 µg/mL [6] [%] | % inhibition of HGF stimulated phospho-Met (ELISA, HCT116 cells), Ab 10 µg/mL [6] [%] | AVG A450 nm [7] [A450 nm] | AVG A450 nm [8] [A450 nm] | Mean Fluorescence (c-Met left on the surface of MKN45 cells, FACS), Ab 5.00 ug/mL [9] | AVG A450 nm [10] [A450 nm] | AVG A450 nm [11] [A450 nm] | AVG A450 nm [12] [A450 nm] | AVG A450 nm [13] [A450 nm] | AVG CPM, 3H-thymidine incorporation in MKN45 cells, Ab 0.0 ng/mL (no antibody) [14] [CPM] | AVG CPM, 3H-thymidine incorporation in MKN45 cells, Ab 0.1 ng/mL [14] [CPM] | also measured
1 | C8-6 (antibody, human IgG2, kappa, V domains shown, Named IgG4 kappa; also called C8-6 IgG4) VH: QVQLVQSGAEVKKPGASVKVSCKASGYTFTDYYMHWVRQAPGQGLEWMGRVNPNRGGTTYNQKFEGRVTMTTDTSTSTAYMELRSLRSDDTAVYYCARTNWLDYWGQGTTVTVSS VL: DIQMTQSPSSLSASVGDRVTITCSVSSSVSSIYLHWYQQKPGKAPKLLIYSTSNLASGVPSRFSGSGSGTDFTLTISSLQPEDFATYYCIQYSGYPLTFGGGTKVEIKR | 1.08 | 2.56 | 2.61 | 2.42 | 0.98 | -11.3 | -6.06 | 7.79 | 16.8 | 27.9 | 14.9 | 2 | 0.95 | 67.9 | 1.32 | 2.64 | 2.59 | 1.33 | 48700 | 51700 | AVG CPM, 3H-thymidine incorporation in MKN45 cells, Ab 0.4 ng/mL [14]: 53400 CPM; AVG CPM, 3H-thymidine incorporation in MKN45 cells, Ab 2.6 ng/mL [14]: 54600 CPM; AVG CPM, 3H-thymidine incorporation in MKN45 cells, Ab 15.4 ng/mL [14]: 44800 CPM; AVG CPM, 3H-thymidine incorporation in MKN45 cells, Ab 92.6 ng/mL [14]: 23000 CPM; AVG CPM, 3H-thymidine incorporation in MKN45 cells, Ab 555.6 ng/mL [14]: 18300 CPM; AVG CPM, 3H-thymidine incorporation in MKN45 cells, Ab 3333.3 ng/mL [14]: 18200 CPM; AVG CPM, 3H-thymidine incorporation in MKN45 cells, Ab 20000.0 ng/mL [14]: 16400 CPM
2 | C8-co-16 (antibody, human IgG2, kappa, V domains shown) VH: QVQLVQSGAEVKKPGASVKVSCKASGYTFTDYYMHWVRQAPGQGLEWMGRVNPYRGSTTYNQKFEGRVTMTTDTSTSTAYMELRSLRSDDTAVYYCARANILDYWGQGTTVTVSS VL: DIQMTQSPSSLSASVGDRVTITCSVSSSVRSIYLHWYQQKPGKAPKLLIYSTSNLASGVPSRFSGSGSGTDFTLTISSLQPEDFATYYCQVYRGYPLTFGGGTKVEIKR | – | – | – | – | – | – | – | – | – | – | – | – | – | – | – | – | – | – | – | – | 3H-Thymidine Incorporation in Primary Human Hepatocytes in the Absence of HGF (average), dose 0.0032 ug/mL [15]: 829; 3H-Thymidine Incorporation in Primary Human Hepatocytes in the Absence of HGF (average), dose 0.016 ug/mL [15]: 716; 3H-Thymidine Incorporation in Primary Human Hepatocytes in the Absence of HGF (average), dose 0.08 ug/mL [15]: 767; 3H-Thymidine Incorporation in Primary Human Hepatocytes in the Absence of HGF (average), dose 0.4 ug/mL [15]: 670; 3H-Thymidine Incorporation in Primary Human Hepatocytes in the Absence of HGF (average), dose 2 ug/mL [15]: 822; 3H-Thymidine Incorporation in Primary Human Hepatocytes in the Absence of HGF (average), dose 10 ug/mL [15]: 952; 3H-Thymidine Incorporation in Caki-1 Cells in the Absence of HGF (AVG CPM), antibody dose 0.1 ng/mL [16]: 15600 CPM; 3H-Thymidine Incorporation in Caki-1 Cells in the Absence of HGF (AVG CPM), antibody dose 0.4 ng/mL [16]: 14100 CPM; 3H-Thymidine Incorporation in Caki-1 Cells in the Absence of HGF (AVG CPM), antibody dose 2.6 ng/mL [16]: 13700 CPM; 3H-Thymidine Incorporation in Caki-1 Cells in the Absence of HGF (AVG CPM), antibody dose 15.4 ng/mL [16]: 12100 CPM; 3H-Thymidine Incorporation in Caki-1 Cells in the Absence of HGF (AVG CPM), antibody dose 92.6 ng/mL [16]: 11600 CPM; 3H-Thymidine Incorporation in Caki-1 Cells in the Absence of HGF (AVG CPM), antibody dose 555.6 ng/mL [16]: 11400 CPM; 3H-Thymidine Incorporation in Caki-1 Cells in the Absence of HGF (AVG CPM), antibody dose 3333.3 ng/mL [16]: 13800 CPM; 3H-Thymidine Incorporation in Caki-1 Cells in the Absence of HGF (AVG CPM), antibody dose 20000.0 ng/mL [16]: 13100 CPM; Percent of DU145 Cells in Colonies (scatter assay), antibody 20 ug/mL [17]: 23.7%
3 | C8-co-16 (antibody, human IgG2, kappa, V domains shown, Named IgG4 kappa; also called C8-co-16 IgG4) VH: QVQLVQSGAEVKKPGASVKVSCKASGYTFTDYYMHWVRQAPGQGLEWMGRVNPYRGSTTYNQKFEGRVTMTTDTSTSTAYMELRSLRSDDTAVYYCARANILDYWGQGTTVTVSS VL: DIQMTQSPSSLSASVGDRVTITCSVSSSVRSIYLHWYQQKPGKAPKLLIYSTSNLASGVPSRFSGSGSGTDFTLTISSLQPEDFATYYCQVYRGYPLTFGGGTKVEIKR | 0.6 | 2.05 | 2.61 | 2.08 | 0.56 | -10.7 | -2.89 | 9.77 | 45.1 | 59 | 65.4 | 1.3 | 0.57 | 56.2 | 0.38 | 2.2 | 2.18 | 0.7 | 51500 | 45700 | AVG CPM, 3H-thymidine incorporation in MKN45 cells, Ab 0.4 ng/mL [14]: 47500 CPM; AVG CPM, 3H-thymidine incorporation in MKN45 cells, Ab 2.6 ng/mL [14]: 53500 CPM; AVG CPM, 3H-thymidine incorporation in MKN45 cells, Ab 15.4 ng/mL [14]: 22500 CPM; AVG CPM, 3H-thymidine incorporation in MKN45 cells, Ab 92.6 ng/mL [14]: 12400 CPM; AVG CPM, 3H-thymidine incorporation in MKN45 cells, Ab 555.6 ng/mL [14]: 13500 CPM; AVG CPM, 3H-thymidine incorporation in MKN45 cells, Ab 3333.3 ng/mL [14]: 13000 CPM; AVG CPM, 3H-thymidine incorporation in MKN45 cells, Ab 20000.0 ng/mL [14]: 11700 CPM
